Data: paper PMC12714700

Target: SARS-CoV-2 Delta spike-ferritin fusion protein (Delta spike-ferritin VLP antigen) (SARS-CoV-2 (Delta variant) | Helicobacter pylori) (UniProt P0DTC2)
Experiment: cryo-EM structure

Question: How did the stoichiometry N turn out when “SARS-CoV-2 Delta spike-ferritin fusion protein (Delta spike-ferritin VLP antigen) (from UniProt P0DTC2 14-1163)” was run?
Answer: 24
